For one data set, the target named is T1, Pti1 (Lycopersicon esculentum, UniProt Q41328 Q41328:1-354).
T1 sequence: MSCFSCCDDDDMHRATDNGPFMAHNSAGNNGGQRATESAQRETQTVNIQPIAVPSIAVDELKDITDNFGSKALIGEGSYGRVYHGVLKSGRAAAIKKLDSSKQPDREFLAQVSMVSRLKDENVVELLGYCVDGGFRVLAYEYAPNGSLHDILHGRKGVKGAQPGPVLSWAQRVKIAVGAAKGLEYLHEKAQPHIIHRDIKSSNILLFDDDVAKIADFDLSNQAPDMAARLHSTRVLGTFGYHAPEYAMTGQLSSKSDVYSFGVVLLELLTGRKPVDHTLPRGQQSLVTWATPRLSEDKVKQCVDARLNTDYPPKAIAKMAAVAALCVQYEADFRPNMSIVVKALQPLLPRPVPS
The experiment in a line: EMSA; negative control protein. The note with it: tags: GST fusion; label: 32P end label. The method, then:
(§1) The wild type gln2 PR-box 2× ([…] […])(SEQ ID NO:17) and mutated PR-box 2× ([…] […]) (SEQ ID NO:18) were end-labeled by 32P as described by Ausubel, F. M., Brent, R., Kingston, R. E., Moore, D. D., Seidman, J. G., Smith, J. A., and Struhl, K. (1994). Current Protocols in Molecular Biology. (New York: Greene Publish Associates/John Wiley and Sons). Four fmol of probe was mixed with each of the purified GST-fusion proteins in a buffer containing 2 μg poly(dA-dT) (dA-dT), 25 mM Hepes (PH7.5), 40 mM KCl, 0.1 mM EDTA, 10% glycerol, and 1 mM DTT, incubated at room temperature for 15 minutes, and electrophoresed on a 4% polyacrylamide gel in 0.25×TBE buffer. Ohme-Takagi, M. and Shinshi, H. (1995). Ethylene-inducible DNA-binding proteins that interact with an ethylene-responsive element. Plant Cell 7, 173–182. The gel was subsequently dried and exposed to x-ray film. […] In contrast to GST-Pti5 and GST-Pti6, neither GST-Pti1 nor GST itself bound to the PR-box.
(In general: A gel shift assay detects complexes by their altered migration in electrophoresis.)

The target of the next data set is GST (UniProt P08515 P08515:1-218). As to the kind of experiment: EMSA; negative control protein. The note with it: tags: GST alone; label: 32P end label. The method, then:
as §1

Data set [1] addresses T2, Pti6 (Lycopersicon esculentum, UniProt O04682 SEQ:1-248). The experiment in a line: EMSA; 4 fmol probe, poly(dA-dT), 25 mM Hepes pH 7.5, 40 mM KCl, room temperature. The note with it: tags: GST fusion (pGEX), E. coli PR745; label: 32P end label. Here is the method:
as §1

The target of data set [2] is T3, Pti5 (Lycopersicon esculentum, UniProt O04681 SEQ:1-161). The data set is described as above. The note with it: tags: GST fusion (pGEX), E. coli PR745; label: 32P end label. Here is the method: as §1
The target of data set [3] is T2, Pti6. As to the kind of experiment: EMSA; no binding detected; same buffer. Particulars: tags: GST fusion (pGEX), E. coli PR745; label: 32P end label. Here is the method:
as §1

For data set [4], the target named is T3, Pti5. The experiment in a line: EMSA; no binding detected; same buffer. The note with it: tags: GST fusion (pGEX), E. coli PR745; label: 32P end label. Here is the method:
as §1

T2 sequence (O04682 whole entry, the tested form may be a part): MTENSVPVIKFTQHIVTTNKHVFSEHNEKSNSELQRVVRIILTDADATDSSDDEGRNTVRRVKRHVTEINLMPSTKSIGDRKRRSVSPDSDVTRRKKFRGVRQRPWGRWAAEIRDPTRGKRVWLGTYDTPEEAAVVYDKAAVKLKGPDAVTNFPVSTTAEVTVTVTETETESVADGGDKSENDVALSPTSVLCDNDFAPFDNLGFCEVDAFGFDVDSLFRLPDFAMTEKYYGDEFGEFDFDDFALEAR
T3 sequence (O04681 other isoform, or with tags, fused parts or gaps): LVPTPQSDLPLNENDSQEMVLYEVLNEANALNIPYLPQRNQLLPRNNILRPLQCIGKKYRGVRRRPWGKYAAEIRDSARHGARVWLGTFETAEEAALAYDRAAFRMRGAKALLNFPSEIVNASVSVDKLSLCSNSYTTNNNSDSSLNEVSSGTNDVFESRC
GST, sequence (P08515 whole entry, one chain of several): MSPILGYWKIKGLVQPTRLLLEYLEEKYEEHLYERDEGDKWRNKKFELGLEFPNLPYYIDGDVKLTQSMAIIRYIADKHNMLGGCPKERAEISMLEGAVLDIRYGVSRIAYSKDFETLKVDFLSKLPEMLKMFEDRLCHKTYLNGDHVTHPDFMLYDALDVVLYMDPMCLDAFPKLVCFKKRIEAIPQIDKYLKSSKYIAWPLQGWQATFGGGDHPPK

B1: wild type gln2 PR-box 2x (dsDNA)
DNA 1: CATAAGAGCCGCCACTAAAATAAGACCGATCAAATAAGAGCCGCCAT
DNA 2: ATGGCGGCTCTTATTTGATCGGTCTTATTTTAGTGGCGGCTCTTATG
Turning to B1, the binding result is reported as “no binding” with Pti1, “no binding” with GST, “binds” with Pti6 [1] and “binds” with Pti5 [2].

B2: mutated PR-box 2x (dsDNA)
DNA 1: CATAAGATCCTCCACTAAAATAAGACCGATCAAATAAGATCCTCCAT
DNA 2: ATGGAGGATCTTATTTGATCGGTCTTATTTTAGTGGAGGATCTTATG
B2: the binding result with Pti6 [3] and with Pti5 [4] was “no binding” throughout.

Values taken from patent publication US6653533, “Nucleic acids encoding proteins with pathogen resistance activity and plants transformed therewith” (Purdue Research Foundation).
